Test results: the DeepSol protein solubility set

assay: soluble on expression in E. coli; label from the status in PepcDB or PDB records

Row | Sequence | soluble on expression in E. coli
1 | MRKYTFKTQRPKIVVIGGGTGLPVVLNGLRKQAVDITAVVTVADDGGSSGIIRNYVNVVPPGDIRNVMVALSSWPDLYKDIFQYRFQGDDQFFAGHAIGNLIIAALTEMKSGVFDAVQELSNMMQVDGHVYPAANEALTLHGKFSDGTELVGEAEITAAHKSLERVWVTDKNGKEPQAVQPVIDAIMAADQIVLGPGSLFTSILPNLTIGNIGRAVCESDAEVVYICNIMTQKGETDNFSDADHVRVLNRHLGQNFINTVLVNTEKVPEDYMDFHKFNEVSKQVSHDFRGLREQNCRVISSNFLKLRDNGAFHDGDQVVAELMNLVGHSDVFRLEHHHHHH | soluble
2 | MERVAIFIDGSNLYKGLVQHLGSDYRLNFVEFITLLTAGRKLLRAYYYNAPLPPEDPAAKAHQSFLNYLKRVPYVTVRLGRLERRADGFVEKGVDIQIAVDMLRLAFVNAYDIAVLVSGDGDFAEVVRVVQDLGKQVENTTFHALSSHRLAQQADHFYPLDDFPWERLRAQVSPASPEEEA | soluble
3 | MNHVKKHVLWKDEYFERYYRLNPELVQKRLDKIYQAEDDLMVLISTQLFCFLQANGTLYFDGCYKTGKADNSLLCTNLALWSIELACDHFDIREERGHTTKFSEQGESWLTLFACNQFSLVPYCYPAIQRGFQSGVLKEIVPFYREQKLGILAMEIMARERGDTINWEAMQVRVDPVYLDFCQNILLSSDDELVRTGLITLCDKHLEWTDFHNSDKHCCLTGYEIQRQDLLLWPFEYQAVKNWRARQGLSTPMIEHPLMNSPMTTANCPDFSQWQRPEWFNPLVDFLAQRRPELAFLRHLFI | not soluble
4 | MSLTTITLRSAELFDVYLTFRQPMQTAISILSKRRTTILRLTDQEGRIGYGEGVAFETPWYTAETQDSLRALSPLLYRLLAAAPLSSPAAVAARFQPIKGNQMAKAMFDGAVHELFAQAEQTSLAAYLGGDENRSIPCGKALGRSSAEQTVEAVGQALNDGFERIKLKLAPTDTAVLEQVRKSFPGAPLMFDANGSFQVADLPLLQEWDTFSMLMMEQPFPADDWLSHQHAASLLKTPLCLDESIQTTQDALLMRTLQAGQIINIKPARLGGLTAALDVRSISPSYWLGGMFESGIGRRQTLAFATLPGLAYPIDMSGTDQYFIEDLLEQDYIVENGSIRYAEHSVSQERLERLAVSTKKLEGHHHHHH | soluble
5 | MTFKPVEICVYGADVICPACVQLPSSKETYEWLEAALRRKYPDQPFVMTYVDIFAPPADDEEKRELAQTIVEEDWVYPVVVIEGNVVAEGNPRLKAICAEMEKFGYRPSAHEGKKAE | not soluble
6 | MAHHHHHHMLKELNLNTTFLRQDYRTPLKQLSVDPIFCRRRGGRAILHFEMNQVQGTVAVTLTGCVAQACVPHACGAGWGNMKVEQLRSFFLSFVVVADAAQPSYFLWGEVSVHEMNGTAGNHLAIDGQSLRTCTTASVIPPLSEIPPEVFIVKAKKFRCQMHEKGFGDSTTCP | not soluble
7 | MINKDEEVANRFSDPSKKLVEYVTDFSDMRDEDIELTKPIYENYGNFQLLNETGIIRTDEEIKELYNCKGEFGSTDEVTDMSF | not soluble
8 | SSAEQSFLFSREEADTLRLKVEELEGERSRLEEEKRMLEAQLERRALQGDYDQSRTKVLHMSLNPTSVARQRLREDHSQLQAECERLRGLLRAMERGGTV | soluble
9 | MSYCCCQSNIPPDGCIRDGMPVFCGLFPSGYRAPPRSLSPPAFRSVLVSGHQPQYADCQTRTGRPVRSPVTPPPAHTSAVHGALSLPGQPADMAMMCFHSQPRDEYGETDDTGMYPAHWKDWPSGCTRSQSVYR | soluble
10 | MSRVITHGQVKRVSETNAYAVPVESLTFPTLQPIGPLPPAGTTGVLITQRVPNTPYTPAPPPPPPVPANQTIIYEDGNNNNTIYMRVVSVVGPAKYNIEVL | not soluble
11 | GPGSMLHFPITPPPIEIEYLDNDPLEFAVRTEARKWRFDDMGYMRELAFVRINNNPTVGDFRNMSPDERRNLFWGSDRQDFFRHLTCTLTGSPEHLYHRGW | not soluble
12 | MAHHHHHHSLIDLHIHSNYSDGQGSVEEIARRAKERGLKAIAIVDHSIELPFGLTEKKARMREIEIENAASLYGIKIYSGIECSINAAGEIVLPDFDFDFIIASVHEFVYGQAYYERVIRCLESHDVDVLGHPFSPLFGFDGRLAEMDEKLLDVVEERGVAVELNSSHKSPQDEFLQLCRDRKIAYSIGSDAHSLSGVGEVGWSVEKAKRYMAGAKLFTPEG | not soluble
13 | KTISLYKTKIPQDKTENVDAFLVTDSELISKLEKAKNKKEETKASGKSASARVAVQATQKKQSNEKQIVGYTTTSALSEDGKHIFKLGKLNSENYERKIIVGATVETLEQSTTLQSEEAIVLAAPGKYKDSDQKRVMITQGPNLIGVHANTKENEETKKFVNW | not soluble
14 | MLDEKASEEEIKAMFLMLSGGLKSQPGEDEKATAVAYLFSLDGLSRWAIKTATRDVMKGKAEGLSTTFMPASADLLLYCEKLEDDIRTTVKGIFTSLDRPEIKPKGEPISAEKWDKLMQMLEKPKIGLNPFQ | not soluble
15 | MSSNRQAYYKNNAKEQIGKEKRNEEVVSIRKDKREEAISKRRNINTQIEDDSETSTTPPGPFDANLLRLTVAAAQSSDPAEQLTAVQQARKMLSTDRNPPIDDLIGSGILPVLVQCLSSTDPNLQFEAAWALTNIASGTSEQTQAVVNAGAVPLFLQLLSCGNLNVCEQSVWALGNIIGDGPHFRDYCLELGILQPLLQFINPEIPIGFLRNVTWVIVNLCRCKDPAPSPAVVRTILPALSLLIHHQDTNILIDTVWALSYLTDGGNEHIQMVIEAQVVTHLVPLLGHVDVKVQTAALRAVGNIVTGTDEQTQLVLDSGVLRFMPGLLAHYKEKINKEAVWFVSNITAGNQQQVQDVFDAGIMPMIIHLLDRGDFPTQKEAAWAISNVTISGRPNQVEQMVKLGVLRPFCAMLSCTDSQIIQVVLDGINNILKMAGEAAEQVTSEIEECGGLDKIENLQNHENEDIYKLAFEIIDNFFSSDDETGNVEGAQSSAFGGDVPPVPDAPNGGWNFGK | not soluble
16 | MIKFSATLLATLIAASVNAATVDLRIMETTDLHSNMMDFDYYKDAATEKFGLVRTASLIEQARAEVKNSVLVDNGDVIQGSPLGDYMAAKGLKEGDVHPVYKAMNTLNYAVGNLGNHEFNYGLDFLHKALAGAKFPYVNANIIDAKTGKPMFTPYLIQDTRVVDSDGQIHTLRIGYIGFVPPQIMTWDKANLNGKVTVNDITETARKYIPEMRAKGADVVVVVAHSGLSADPYQAMAENSVYYLSQVPGVDAIMFGHAHAVFPGKDFANIKGADIAKGTLNGVPAVMPGMWGDHLGVVDLVLNNDSGKWQVTQSKAEARPIYDAVAKKSLAAEDGKLVSVLKADHDATREFVSK | not soluble
17 | ANATVKMGSDSGALVFEPSTVTIKAGEEVKWVNNKLSPHNIVFAADGVDADTAAKLSHKGLAFAAGESFTSTFTEPGTYTYYCEPHRGAGMVGKVVVD | soluble
18 | MLKSILRGALVATKPGPARRQFSFTALLRSETQPKEIINLERVQVRKMKKRRPVASSVVPKSLREPSVVAMALSESLNLNEVIMDAQLNGMYNITAIDEDADDSLHFVKKLEYTINPGELSEIFVFRDGVVVFWNVDSSQRSHILRELERYADAPYDSMIVMDEQDRMFYKFSEQSTGSTIRQDRFYLSGKHLDAFHGSNEAILERFALSQGFAASVKIGVWESLLNNLAEPLSNTTKSLTLGKIPWSRKQALMRSGEFAALRHSINLDCTLLNKDFYWERPELEKYYTMTGRHFSLDRRIGLLNKRLDYCEELVKMVDNTIALRHASHLEWMIIVLIVIEVIFDVFHFADKTPKSVMIVPDSSKAQQLRNEGN | not soluble
19 | MSRIGRIPVAIPKGVDVKLGDNNTLTVKGQKGTLTKQFHKDMIIKVEGDKIIVQRPSDEKKHKALHGLTRTLINNMVIGVTQGYEKALEINGVGYRAQKQGKKLILTLGYSHPVEMEEPQGITVEVPAPNKIVVKGADKQAVGEFAAKIRSKREPEVYKGKGIKYEDEVIRRKEGKAGGKGKK | not soluble
20 | MRPDLSRVPGVLGEIARKRASEVAPYPLPEPPSVPSFKEALLRPGLSVIAEVKRQSPSEGLIREVDPVEAALAYARGGARAVSVLTEPHRFGGSLLDLKRVREAVDLPLLRKDFVVDPFMLEEARAFGASAALLIVALLGELTGAYLEEARRLGLEALVEVHTERELEIALEAGAEVLGINNRDLATLHINLETAPRLGRLARKRGFGGVLVAESGYSRKEELKALEGLFDAVLIGTSLMRAPDLEAALRELVG | soluble
21 | MRIVEVYSHLNGLEYIQVHLPHIWEEIQEIIVSIDAEACRTKESKEKTKQGQILYSPVALNEAFKEKLEAKGWKESRTNYYVTADPKLIRETLSLEPEEQKKVIEAAGKEALKSYNQTDFVKDRVAIEVQFGKYSFVAYDLFVKHMAFYVSDKIDVGVEILPMKELSKEMSSGISYYEGELYNVIRQGRGVPAVPLVLIGIAP | soluble
22 | MSLSFKDAVRKRPGMYFGDIDHNAVNHVIYELVANVVDLFLAGRATTLKVDVSECEIIVIDDGPGFPFPVEDSAHNLVERYLTHHHDKPTADDHAPHIHVLGGGLGLAAVNAVSEKLTIESSNGAWRWRQVFGKGDVLAPLESFRYDGPSGSSIKFTLDPSVFHNRLPDFFQLRKAMFELAHLYSGLIVEFDGERYVSKQGLMELAYLMWSGEGHHHHHH | not soluble
23 | MFALIQRGQIYTDRAGYPVEITRSTEHSVFFRRMDGRTGRVRIGEFSSLFEHIDHLEYHKILAETEQEKHLKKLRAMQRK | not soluble
24 | SRMNPTIMVPGSEATQERFNETLASLNKQGKKHSILKLTVHKDNSISYSGQIAASDNRPYIVVAFADNKDSYTTIKKQAKWLDHALDELQKKYHFKNFNAIGHSNGGLDWTVYLENYYAKENFHLNTLMTIGTPYNFEVVNSSNHTQMLQDLIAAKDALPDDLTVYNVAGTNSYDGDYIVPITSVETGKYIFQKTIKQYTQITVTGNEAEHSDLPTNKEVLDLISENILNNNRKKVDPKNQN | not soluble
25 | MGSDKIHHHHHHMIDGDSSPLLRKQSPYPHWQYLHPESGDRLRIVPERGGLVTDWCCNGHELLYLDQERFADPEKSIRGGIPVLFPICGNLPGDLLPLPSGEFILKQHGFARDQPWELQLLEDHSGVKLSFVDSEETRAAYPFSFLLEMVVRPIRNALEIDVNVHNRSQSAMPFSFGLHPYFKVTDLNKVRLEGLPNSCLNHLQMAEAETAIQLAALTEGVDFLTRPAGPVTLVDEASGRSLQLQHENPMDLTVVWTDPPRQMLCLEPWTGPREALISGDRKLEIEAGGQQRLRCSFSINLEKTVRAASC | not soluble
26 | MSLLRFGIISTAKIAQDHVIPAIQDAENCVVSAIASRDHARARAVAERFSVPHAFGSYEEMLASDVIDAVYIPLPTAQHVEWTIKAANAGKHVLCEKPIALKAEEIDTLIAARDRNGVIVSEAFMVTYSPVWAKVKELLASGAIGTLKHVQGAFSYFNRDPGNMRNIPELGGGALPDIGVYPTIVTRFATGAEPRRVQATVERDREFGTDIYSSVRADFGTFELSFYLATQLASRQLMVFHGTDGYIEVKSPFNANRWGAEEIELTNQAHNQSQVFRFQDSRQYKLEAEAFARAVRGEGEVVTLENSRKNQLFIDAIYRAAEKDGWETVEGHHHHHH | soluble
